For one substance, Km and kcat results are on record in PMC5500849, “Cobamide-mediated enzymatic reductive dehalogenation via long-range electron transfer” (Nature Communications, 2017).

As a reminder, the Km is the substrate concentration at which the rate is half of its maximum. Usually kcat stands for the number of substrate molecules converted per active site and unit of time at saturation.

This data set has as its system Oc1c(Br)cc(Br)cc1Br. The data set can be described thus: purified protein. The note with it: reduced methyl viologen 0.5 mM / Ti(III) citrate 1.4 mM, 100 mM Tris-HCl pH 7.5, 22 °C, no NH4+.

For the substance “PceA (PceA–Strep) (Sulfurospirillum multivorans)”, the Km amounted to 158 µM and the kcat amounted to 8 s⁻¹.
